Measurements published in article doi:10.1101/2020.08.21.260711, “Eukaryotic translation initiation factor 5A and its hypusination play an important role in proliferation and differentiation of the human enteric protozoan parasite Entamoeba histolytica” (bioRxiv, 2020).

Target: T1, Entamoeba histolytica deoxyhypusine synthase 1 (EhDHS1) with the amino-terminal His-tag (E. histolytica, UniProt C4LXB8 1-331)
T1 sequence (looked up): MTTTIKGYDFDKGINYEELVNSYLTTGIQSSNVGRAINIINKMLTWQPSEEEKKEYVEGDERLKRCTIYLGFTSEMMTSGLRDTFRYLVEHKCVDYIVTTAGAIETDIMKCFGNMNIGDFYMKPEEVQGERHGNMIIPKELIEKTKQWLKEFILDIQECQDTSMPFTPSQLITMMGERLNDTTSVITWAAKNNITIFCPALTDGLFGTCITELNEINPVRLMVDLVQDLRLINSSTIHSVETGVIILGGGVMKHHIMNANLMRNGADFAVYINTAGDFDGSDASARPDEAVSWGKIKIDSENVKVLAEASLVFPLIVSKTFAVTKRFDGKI
Experiment: cell-based or functional assay

B1: Entamoeba histolytica deoxyhypusine synthase 2 (EhDHS2) with the carboxyl-terminal S-tag (enzyme, E. histolytica, UniProt C4M2N7 1-336, looked up)
chain: MSITGEEFAKVTSKVLGESKEYKGEKCIGYDFDNGVDFNKVMEKMKYTGFQALNLGLCIEQVNEMRKNHAKIFLGMSSNIVSSGLREVIHYLVKNKFVDAIVVTAGGIEEDFIKTMHPTLLGDFYFKGKELYPNGYNRIGNLILPNSNYCEFEDWMDPLLLECLKEQNEHGVHWTPSKLVHKMGESINNESSIYYWAAKNNIPVFSPAITDGSIGDMIFFFSYKNEGLVLDLVQDVIKIDEMAFNAEKVGCLLVGAGIAKHHILNAMKRRGGCDYCAMLSTSIECDASDAGSEIAADRTKGFFKPECNPAKVIGDATILLPLIVASTFAQKEEPTK
notes: EhDHS2 gene amplified by PCR, stop codon removed, cloned into AatII-XhoI of pETDuet-EhDHS1; The stop codon was removed to fuse the gene with the C-terminal S-Tag of pETDuet; also called S-tag DHS2; EHI_006030; source: E. coli BL21 (DE3), coexpressed with EhDHS1 from pETDuet-EhDHS1/2, in lysate, then copurified on Ni2+-NTA; not shown: S-tag, C-terminal, kept
DHS enzymatic activity (1,3-diaminopropane production) of coexpressed EhDHS1/EhDHS2 as compared to EhDHS1 alone, with EheIF5A1 or EheIF5A2 as substrates: > 2000 fold
